Assay: soluble on expression in E. coli; label from the status in PepcDB or PDB records

| Sequence | soluble on expression in E. coli |
| --- | --- |
| MNIFTEAAKLEEQNCPFAMAQIVDSRGSTPRHSAQMLVRADGSIVGTIGGGMVERKVIEESLQALQERKPRLFHGRMARNGADAVGSDCGGAMSVFISVHGMRPRLVLIGAGHVNRAIAQSAALLGFDIAVADIYRESLNPELFPPSTTLLHAESFGAAVEALDIRPDNFVLIATNNQDREALDKLIEQPIAWLGLLASRRKVQLFLRQLREKGVAEEHIARLHAPVGYNIGAETPQEIAISVLAEILQVKNNAPGGLMMKPSHPSGHQLVVIRGAGDIASGVALRLYHAGFKVIMLEVEKPTVIRCTVAFAQAVFDGEMTVEGVTARLATSSAEAMKLTERGFIPVMVDPACSLLDELKPLCVVDAILAKQNLGTRADMAPVTIALGPGFTAGKDCHAVIETNRGHWLGQVIYSGCAQENTGVPGNIMGHTTRRVIRAPAAGIMRSNVKLGDLVKEGDVIAWIGEHEIKAPLTGMVRGLLNDGLAVVGGFKIGDIDPRGETADFTSVSDKARAIGGGVLEALMMLMHQGVKATKEVLEVALEHHHHHH | not soluble |
| MNIFVNMRIMVAHTPDPDDAFMFYGMFEGKIRTSNQYEQVIKDIETLNKESKEGKYEVTAISANGYVQVRDLYKLTRSGASFGISYGPIVVARNEIDLSKSRMGVPGFMTSSYLLYRMFGPEAKEYVEIKFDEIPDAILTGKVDAGILIHDEQLTFQKRGLKEVFDIYSAWKSYAGNLPIPLGFNAIRKDLDEDTVNKFLYDFERSIRYAMAHEEEAVKYAMKYARYTDLDLERRFVRMYVNELSIDFGDTGRKALELYYNRAAGKGLIPPFKPEIV | not soluble |
| MNIIILAGGEGKRMGGVDKAAVAVDGRTLLDILLSQLDPEDDVVVVSPAIIDGITTVCEEPPLGGPVAGIEAGLNSFEHAHEFTAILAVDAPYSAAMLPLLQAQIGKADVAVTLAADGWVQPLCALWRSGSLEAVIHSLGETRNRPAKALLKQAGHIVEVGGDGTEKDYDTVAELEVLGNVTLPKAHLEHHHHHH | not soluble |
| MNIIKANVAAPDARVAITIARFNQFINDSLLDGAVDALTRIGQVKDDNITVVWVPGAYELPLATEALAKSGKYDAVVALGTVIRGGTAHFEYVAGGASNGLASVAQDSGVPVAFGVLTTESIEQAIERAGTKAGNKGAEAALTALEMINVLKAIKA | not soluble |
| MNIIKGNIASPLGFSADGLHAGFKKKKLDFGWIVSEVPANVAGVFTTNKVIAAPLKLTKNSIEKSGKMQAIVVNSGIANSCTGKQGEKDAFKMQQLAANKLQIQPEYVGVASTGVIGKVMPMSILKNGFSKLVKNGNADDFAKAILTTDTHTKTCVVNEEFGSDTVTMAGVAKGSGMIHPNLATMLAFITCDANISSQTLQQALKDVVEVTFNQITVDGDTSTNDMVLVMSNGCTNNNEIKKDSEDYYKFKQMLLYIMTDLAKSIARDGEGASKLIEVTVKGAKESSAARMIAKSVVGSSLVKTAIFGEDPNWGRIIAAAGYAKTYFDINQVDIFIGRIPVLIRSSPVKYDKEEIQEIMSAEEISIQLDLHQGNCEGQAWGCDLSYDYVKINALYTTLEHHHHHH | not soluble |
| MNIISQNTAFGGMQGVFSHQSETLKSEMTFAVYVPPKAIHEPCPVVWYLSGLTCTHANVMEKGEYRRMASELGLVVVCPDTSPRGNDVPDELTNWQMGKGAGFYLDATEEPWSEHYQMYSYVTEELPALIGQHFRADMSRQSIFGHSMGGHGAMTIALKNPERFKSCSAFAPIVAPSSADWSEPALEKYLGADRAAWRRYDACSLVEDGARFPEFLIDQGKADSFLEKGLRPWLFEEAIKGTDIGLTLRMHDRYDHSYYFISTFMDDHLKWHAERLG | not soluble |
| MNIPMYIVDAFTDRPFAGNPAAVCLLPQPVGDEWMQRVAAEMNLSETAFLVPHEGGYRLRWFTPKAEVDLCGHATLASAHVLWERGERRADEAIAFFTNSGVLTAINNDGWIRLDFPNETPVRVESPPAALVGALPAEPLFIGRNRFDYLVEIGSEQEVRRLTPDFRLLQEVDARGIIVTSRSAAEEMDFVSRAFFPALGVPEDPVTGSAHCCLGPYWADKLGKTTLVGYQASARGGIVRVMVSGERVQLEGKAVTVLKGDLAAEAAFGLQPI | not soluble |
| MNITKAFCLSIALLGASNMQAITNSDFVIQQDNTKINNYQTNRPETSKRLFVSQAVEQQIAHIKQLLTNARLAWMFENCFPNTLDTTVHFDGKDDTFVYTGDIHAMWLRDSGAQVWPYVQLANKDAELKKMLAGVIKRQFKCINIDPYANAFNMNSEGGEWMSDLTDMKPELHERKWEIDSLCYPIRLAYHYWKTTGDASIFSDEWLTAIAKVLKTFKEQQRKEDPKGPYRFQRKTERALDTMTNDGWGNPVKPVGLIASAFRPSDDATTFQFLVPSNFFAVTSLRKAAEILNTVNKKPDLAKECTTLSNEVETALKKYAVYNHPKYGKIYAFEVDGFGNQLLMDDANVPSLIALPYLGDVKVNDPIYQNTRKFVWSEDNPYFFKGTAGEGIGGPHIGYDMIWPMSIMMKAFTSQNDAEIKTCIKMLMDTDAGTGFMHESFHKNDPKNFTRSWFAWQNTLFGELILKLVNEGKVDLLNSIQLEHHHHHH | not soluble |
| MNIVIAAVGGQGAVLTSKILGTLAQNLGKDVKVSEVHGMSQRGGSVVAYVKFGDKVYSPVVEKGTADIVLAFEMLEGARYVDYLKENGKLVVNTQRIDPMPVITGDMEYPADLGEKLEELNIGYIPVDALSLAKNAGTIKAVNVALIGVLAQNSNIKKEEWIKAIKDTVPEKFLELNLKAFELGYNLE | soluble |
| MNKKIVMSFLAATVVTISGCASFADMAGADSATLNASAAQGFSKMTTEARQKGQLDTSSNTYRRINTVMQRMIPYANQMNQTGQPFQWQLAVIKSDTVNAYVAPGGKVVFYTGIVNKLNLSDAEIAAVMGHEMTHALEEHAKSKIGAEALTGLALNIGKAYAGDSIGQAGSAALDLGSQVGVGLPYSRNLESRADYGGLMLMAKAGYNPQAAITLWEKMNRMDGAGGPSFLSTHPSNNQRIQDMRKNLPAAMAVYNNRRLEHHHHHH | not soluble |
| MNKQEVILKVQECAAWWILERQSKLTKLMSETMSINPFMTPFIFDYHSLNDFDELVEAIIAKHLMTGHDTGFGKLIDEKILPRVFGAYKLDKSYRAANEPFIHPCFDEIDHVIQRDDGRIELLSLKAGKWTIQLTMAVQLNKAFHEIINNYPGVADNIVVGVFYGNSHGLTDKYRILRGINTGANHNVIDIRDKVHVYAGKEFWSWLNNGEAETQHWVLEGIERAVKEADIKEKNKDLIEKFKEHVAKKYNEQVLNADGTAQWHKLLEMINE | soluble |
| MNKTIIAERFSKAISTYPREANVQRQIANKMIRLLQKHIPSPCPKVIEFGCGTGIYSRMLLRTLRPEELLLNDLCPEMRYCCEDLLREKQVSFLSGDAETISFPDKSTLITSCSALQWFDSPEEFFKRCNTLLHSQGYFAFSTFGKKNMKEIRELTGKGLPYRSREELEAALSLHFDILYSEEELIPLSFEDPMKVLYHLKQTGVNGLSAQSSLYPKHEKQTWTRRDLQHFCERYTQEFTQGTSVSLTYHPIYIIAKKKKV | soluble |
| MNKTNQIVDLLTNKQNNSIQRRDNLVFVKNEQEFKDILDSTISLSNVYDPLLGNGCEQEKIKELTILNNSVDISKIEEYTKTLESKVDDLYNNVSNQLIQDYQKNENTSANNIIMKNEELLNSHLKEVEKICEQLIDEWKIEILGEVNFKFQQQLIEIDQKQEHKLKVKSLINEDSFLTKRQVKNKNKILTEFEKHRSQITQNYLNKRSDILKKEYDELLKDDKLFELSSGDNWNNFKKITLFISNEIGIINDLEDLLNHQELIRTRNYTKRAILNQHHINGHFKDEKKYLKSLYDLRVKFMYGLGSEIVILKFLIEHYKKLNSLRLRLETLNHPLSNYAVYFDILNRIEKQTQLLAKIETLKYDNYDFNADVILDDLESNITKINEIKHNSNVLNKTKVIKTIIEPKYELELISKDDKVDGVKVYVNDQEILSKLEHHHHHH | not soluble |
| MNKTYMLDTCICSFIMREQPEAVLKRLEQAVLRGQRIVVSAITYSEMRFGATGPKASPRHVELVDAFCARLDAILPWDRAAVDATTEIKVALRMAGTPIGPNDTAIAGHAIAAGAVLVTNNTREFERVPGLVLEDWVR | not soluble |
| MNLEPPKAECRSATRVMGGPCTPRKGPPKCKQRQTRQCKSKPPKKGVQGCGDDIPGMEGCGTDITVICPWEACNHCELHELAQYGIC | soluble |
| MNLFQNLALKYSHTMMEKSLQKGFNVELLKQPEEKIPKQDKSYMLYAHVPFCHTFCPYCSFHKYYYDENLAKVYFQNLREEIKIMKNKGFDFTSMYVGGGTTLIDEEELLKTLELCKKLFNIKEISCESDPNHIDPNKLSMFKGIIDRLSCGIQSFDDETLKKVARYNKFGSSKELQEKISKALGILPIFSIDLIFNLPGQNEKQLLNDLEIAKNLAPQQITTYPLMKSNLTKDNIAKSLGVSIKDNEFTYYQIIREFFKDYTQNNGWSFSLEKNKLNDEYVSSHHEYLGVGSGAFSFLDGELLINAFNLNDYAKFIQEKQNANIAKACFDKKEIIKYVFLTGIFSGKIEIDKFNKTLNCNLEKELFIELLGLKTSGAIIKDQNALIATEFGQYLFVVLMKDFYTGMDLVRAVFRDDKRLKNKDYIDIMKENIDPLNSASMEFKAETN | not soluble |
| MNLIPQDVLKKYLLPIRDLATSTFVFKKKYTRECQRSTPRNFINQFLLLFLKVPFSLLQELKLSKMLEIDKDKKVLIGCLAGSFLFYHTARQIYSYMSVKPREWVPVGVVKSLHIFPIKSCKSVDVFAFKCTKLGPVMGDLEDRAFMLVEESTGKFITARQKPKLVHVENYMTDGMLEVTVPGQPKLSVDLRKVLQNKRTIRATLFKNLKQDGYDCGDEVAKLLSDYIEEPNYRLIFYKEGLYTERTVIPDDQWWNNPVPKRNDDSGFTDLAPFHIATDASLKVLNEKLDNKITMRYFRPSIYIEGCAAWDEDKWAEIRIGDAHLECFAPCTRCVLTTVDPVKGEMSKEMQPLKKLREFRLVPDGKMRKVHMESPVFGVYAGLVNEGYIHTGQTVYVRYKPTAF | not soluble |
| MNLLQCYPTTTVDEMNCEEWGNGTESTQSVAACQGCIELRKEVTDLRQAVNLILPMLPLYPTIGNGFNATGLAAQPTLQHVIQQSLLRKRPVAQTPTVPQPECPGQIRPVLSSPAAALQNVIMLNPWIMGSSLKPASPTLPNGQIPTTIGETSLQGTDDQTVKWIGPSSVDSNGQKTDSSAASAGDNQNIDVIGDGSESPTSSNHSAQEIALMTSQQTFLNALKDSSFLFTNPVPTVETAPPLRVAPPINGTTNGTAKAGGPERKPRKPVNDDIVKIVRNQDLSEENISMFEIPVPKAIASDPTFRPVSEQQIIQQIIQGKKYEEMEVGECMIQLCKKLAEKRVFGPRLMSQTTVAGLNHSNYANLPIKGICYIQHVCRKVLYDKFENEEDFWDKFREAMRKLAARCRRVRHAKKTKHNREEAQAEMLSKRYGEDMPFNLNGAGLIRPKVETVSPEANILNSDQIKSQLESLFAHIPKTESETPLIEIIQQNISLFTHLIRTKVESQSPPLQGPQ | not soluble |
| MNLLVTSSLGVLLHLVVLCQADDHSELLVNTKSGKVMGTRVPVLSSHISAFLGIPFAEPPVGNMRFRRPEPKKPWSGVWNASTYPNNCQQYVDEQFPGFSGSEMWNPNREMSEDCLYLNIWVPSPRPKSTTVMVWIYGGGFYSGSSTLDVYNGKYLAYTEEVVLVSLSYRVGAFGFLALHGSQEAPGNVGLLDQRMALQWVHDNIQFFGGDPKTVTIFGESAGGASVGMHILSPGSRDLFRRAILQSGSPNCPWASVSVAEGRRRAVELGRNLNCNLNSDEELIHCLREKKPQELIDVEWNVLPFDSIFRFSFVPVIDGEFFPTSLESMLNSGNFKKTQILLGVNKDEGSFFLLYGAPGFSKDSESKISREDFMSGVKLSVPHANDLGLDAVTLQYTDWMDDNNGIKNRDGLDDIVGDHNVICPLMHFVNKYTKFGNGTYLYFFNHRASNLVWPEWMGVIHGYEIEFVFGLPLVKELNYTAEEEALSRRIMHYWATFAKTGNPNEPHSQESKWPLFTTKEQKFIDLNTEPMKVHQRLRVQMCVFWNQFLPKLLNATACDGELSSSGTSSSKGIIFYVLFSILYLIF | soluble |

From the DeepSol protein solubility set
